Results: US20240360208A1 (Hoffmann-La Roche, published 2024)

T1: human CCL8 (MCP2) - wild type (wt) (human, UniProt P80075 24-99)
T1 construct: also called huCCL8
T1 sequence: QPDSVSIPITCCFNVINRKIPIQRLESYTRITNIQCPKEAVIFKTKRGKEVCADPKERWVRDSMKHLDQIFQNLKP

T2: human FcγRIIb receptor on CHO-K1 cells (clone 223) (human, UniProt P31994 43-310)
T2 sequence (looked up): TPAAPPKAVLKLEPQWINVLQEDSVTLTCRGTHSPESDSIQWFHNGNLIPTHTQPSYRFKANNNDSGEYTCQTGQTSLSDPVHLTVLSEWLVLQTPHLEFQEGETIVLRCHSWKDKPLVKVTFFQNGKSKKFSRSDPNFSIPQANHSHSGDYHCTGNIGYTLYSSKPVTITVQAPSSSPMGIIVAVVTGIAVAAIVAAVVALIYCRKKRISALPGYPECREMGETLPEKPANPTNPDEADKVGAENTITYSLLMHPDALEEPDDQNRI


Legend:
[1] = biological target: T3, human CCL2 (MCP1) - wild type (wt) (human, UniProt P13500 24-99); assay: cell-based or functional assay
[2] = biological target: T3, human CCL2 (MCP1) - wild type (wt); assay: SPR T200, 37 C, antibody captured, 1:1 model
Protocol: (§1) Antibody clone supernatants were diluted 1:2 in system buffer and were captured for 1 min at 5 μl/min. […] Analyte kinetics were performed at 30 μl/min. As analyte in solution wt human CCL2 or monomeric CCL2 P8A variant CCL2 were used. Analytes were injected at 90 nM highest concentration. The analyte contact time was 3 min and the dissociation time was 10 min. The Biaevaluation software V.3.0 was used according to the instructions of the manufacturer GEHC. A 1:1 binding model with RMAX local was applied to apparently estimate kinetic rates.

[3] = biological target: T4, human CCL2 (MCP1) - P8A variant (human, UniProt P13500 24-99); assay: SPR T200, 37 C, antibody captured, 1:1 model
T4 construct: In-house point mutant that cannot dimerise; also called monomeric human CCL2; monomeric CCL2
Protocol: as §1

[4] = biological target: T1, human CCL8 (MCP2) - wild type (wt); assay: SPR (Biacore T200), 25 °C, ACES pH 7.4; antibody captured on anti-human IgG (Fc), chemokine injected at 5 nM and 20 nM
Protocol: (§2) Biacore assay method: The binding of anti-CCL2 antibodies to the CCL homologs e.g. CCL2 (MCP-1), CCL8 (MCP-2), CCL7 (MCP-3), and CCL13 (MCP-4) were assessed at 25° C. using Biacore T200 instrument (GE Healthcare). Mouse anti-human IgG (Fc) (GE Healthcare) was immobilized on each flow cells of a CM4 sensor chip using amine coupling kit (GE Healthcare) according to the recommended settings by the manufacturer. Antibodies and analytes were diluted into ACES pH 7.4 buffer (20 mM ACES, 150 mM NaCl, 1 mg/ml BSA, 0.05% Tween 20, 0.005% NaN3). Antibodies were captured onto the anti-Fc sensor surfaces, then recombinant human CCL homologs proteins was injected over the flow cell at 5 nM and 20 nM. […] Sensor surface was regenerated each cycle with 3M MgCl2. Binding sensorgram was processed using Biacore T200 Evaluation software, version 2.0 (GE Healthcare).

[5] = biological target: T5, human CCL7 (MCP3) - wild type (wt) (human, UniProt P80098 24-99); assay: as above
T5 construct: Bought from R&D Systems for the homolog assay
Protocol: as §2

[6] = biological target: T3, human CCL2 (MCP1) - wild type (wt); assay: cell-based or functional assay; remark: listed apart in the source
[7] = biological target: T2, human FcγRIIb receptor on CHO-K1 cells …; assay: cell-based or functional assay
[8] = biological target: T3, human CCL2 (MCP1) - wild type (wt); assay: SPR T200, 25 C, anti-human Fc capture, 1:1 model, pH 5.5
Protocol: (§3) An antibody capture system was established. 13000 MAb<h-Fc-pan>M-R10Z8E9-IgG (Roche) were immobilized at 25° C. at 18 μg/ml in 10 mM sodium acetate buffer pH 5.0, by EDC/NHS coupling as described by the manufacturer. The capture system was regenerated by an injection at 20 μl/min with HBS buffer (100 mM HEPES pH 7.4, 1.5 M NaCl, 0.05% (w/v) Tween 20), followed by a 1 min 15 see injection with 10 mM NaOH and two 10 mM glycine buffer pH 2.5 injections for 1 min. Antibodies were captured were injected for 30 see at 10 μl/min at 80 nM concentration diluted in the respective system buffer. […] The analyte contact time was 3 min and the dissociation time was 10 min. Analyte kinetics were performed at 50 μl/min.
(§4) The Biaevaluation software V.3.0 was used according to the instructions of the manufacturer GEHC. A 1:1 binding model with RMAX local was applied to determine kinetic rates.

[9] = biological target: T3, human CCL2 (MCP1) - wild type (wt); assay: SPR T200, 25 C, anti-human Fc capture, 1:1 model, pH 5.9
Protocol: as §3, §4

[10] = biological target: T3, human CCL2 (MCP1) - wild type (wt); assay: SPR T200, 25 C, anti-human Fc capture, 1:1 model, pH 6.3
[11] = biological target: T3, human CCL2 (MCP1) - wild type (wt); assay: SPR T200, 25 C, anti-human Fc capture, 1:1 model, pH 6.7
[12] = biological target: T3, human CCL2 (MCP1) - wild type (wt); assay: SPR T200, 25 C, anti-human Fc capture, 1:1 model, pH 7.1
Protocol: as §3, §4

[13] = biological target: T3, human CCL2 (MCP1) - wild type (wt); assay: SPR T200, 25 C, anti-human Fc capture, 1:1 model, pH 7.4
Protocol: as §3, §4

[14] = biological target: T3, human CCL2 (MCP1) - wild type (wt); assay: SPR T200, 25 C, anti-human Fc capture, 1:1 model, pH 7.9
Protocol: as §3, §4

[15] = biological target: T3, human CCL2 (MCP1) - wild type (wt); assay: SPR T200, 25 C, anti-human Fc capture, 1:1 model, pH 8.3
Protocol: as §3, §4

[16] = biological target: T3, human CCL2 (MCP1) - wild type (wt); assay: SPR, C1 chip, anti-human Fc capture, 25 C, pH 7.4, Langmuir 1:1
Protocol: The sample and system buffer was PBS-T (10 mM phosphate buffered saline including 0.05% Tween20) pH 7.4. The flow cell was set to 25° C.—and the sample block set to 12° C.—and primed with running buffer twice. The bispecific antibody was captured by injecting a 2 μg/ml solution for 60 see at a flow rate of 10 μl/min. Association was measured by injection of human CCL2 (wt) in various concentrations in solution for 150 see at a flow rate of 30 μl/min starting with 30 nM in 1:10 dilutions. The dissociation phase was monitored for up to 1200 sec and triggered by switching from the sample solution to running buffer. […] Bulk refractive index differences were corrected by subtracting the response obtained from a goat anti human IgG Fc surface. Blank injections are also subtracted (=double referencing). For calculation of kinetic parameters, the Langmuir 1:1 model was used.

Row | Binder | THP1 chemotaxis [fold change compared to IgG control] [1] [fold] | Kd [2] [nM] | T1/2 [2] [min] | Kd [3] [nM] | T1/2 [3] [min] | binding result [4] | binding result [5] | other results
1 | 1G9 (antibody, IgG1, V domains shown, also called CCL2-0010) VH: QSLEESGGDLVKPGASLTLTCKASGIDFSLYSYMCWVRQAPGKGLEWIACVDAGASGSTYYASWAKGRFTISKTSSTTVTLQMTSLTAADTATYFCARGILYYTWPYPAGAIDAFDSWGPGTLVTVSS VL: AYDMTQTPASVSEPVGGTVTIKCQASESISNYLSWYQQKPGQPPKLLIYKASTLASGVPSRFKGSGSGTEYTVTISGVQSDDAATYYCQQSYSSSNVFNTFGGGTEVVVK | 0.9 | 0.062 | 177 | 0.051 | 218 | binds | no binding (tested: 20 nM) | 
2 | CKLO2-GG03/GG04 (=P1AF8140) (bispecific antibody) heavy 1: DIQMTQSPSSLSASVGDRVTITCKAFEDIYNRRAWYQQKPGKAPKLLIHGATSLEHGVPSRFSGSGSGTDYTLTISSLQPEDFATYYCQQFWSAPYTFGGGTKVEIKSSASTKGPSVFPLAPSSKSTSGGTAALGCLVKDYFPEPVTVSWNSGALTSGVHTFPAVLQSSGLYSLSSVVTVPSSSLGTQTYICNVNHKPSNTKVDKKVEPKSCDKTHTCPPCPAPEYLGGDSVFLFPPKPKDVLMISRTPEVTCVVIDVSHEDPEVKFNWYVDGVEVHNAKTKPREEQYNSTYRVVSVLPVLHRDWLNGKEYKCKVSNKALPKPIEKTISKAKGQRREPQVYTLPPCREEMTKNQVSLWCLVKGFYPSDIAVEWESNGQPENNYKTTPPVLDSDGSFFLYSKLTVDKSRWQQGNVFSCSVMHEALHAHYTRKELSLSP heavy 2: not shown light 1: QVQLVQSGAEVKKPGSSVKVSCKASGLTISHTYMHWVRQAPGQGLEWMGRIDPDNHNTKFDPKFQGRVTITADTSTSTAYMELSSLRSEDTAVYYCARGVFGFFEHWGQGTTVTVSSASVAAPSVFIFPPSDEQLKSGTASVVCLLNNFYPREAKVQWKVDNALQSGNSQESVTEQDSKDSTYSLSSTLTLSKADYEKHKVYACEVTHQGLSSPVTKSFNRGEC light 2: EIVLTQSPATLSLSPGERATLSCRASQHVSDAYLAWYQQKPGQAPRLLIYDASDRAEGVPARFSGSGSGTDFTLTISSLEPEDFAVYYCHQYIHLHSFTFGQGTKVEIKRTVAAPSVFIFPPSDRKLKSGTASVVCLLNNFYPREAKVQWKVDNALQSGNSQESVTEQDSKDSTYSLSSTLTLSKADYEKHKVYACEVTHQGLSSPVTKSFNRGEC |  |  |  |  |  |  |  | IC50, inhibition of THP-1 migration (chemotaxis assay) [6]: 0.3 µg/mL; EC50 (read off the curve) of the depletion of CCL2 from the supernatant of FcγRIIb CHO cells [7]: ~1 nM
3 | ABN912 (antibody, IgG1, V domains shown, IgG1 with kappa light chain; also called AB912; CCL2-0003) VH: EVQLVQSGGGLVQPGGSLRLSCAASGFTFSHYWMSWVRQAPGKGLEWLANIEQDGSEKYYVDSVKGRFTISRDNAKNSLYLQMNSLRAEDTAVYFCARDLEGLHGDGYFDLWGRGTLVTVSS VL: AIQLTQSPSSLSASVGDRVILTCRASQGVSSALAWYQQKPGKAPKLLIYDASSLESGVPSRFSGSGSGPDFTLTISSLQPEDFATYFCQQFNSYPLTFGGGTKVEIK | 6.5 | 0.036 | 33 | 0.046 | 25 |  |  | Kd [8]: 2000 nM; t 1/2-diss. [8]: 0.03 min; Kd [9]: 13 nM; t 1/2-diss. [9]: 1 min; Kd [10]: 1 nM; t 1/2-diss. [10]: 3 min; Kd [11]: 0.2 nM; t 1/2-diss. [11]: 8 min; Kd [12]: 0.02 nM; t 1/2-diss. [12]: 20 min; Kd [13]: 0.01 nM; t 1/2-diss. [13]: 33 min; Kd [14]: 0.004 nM; t 1/2-diss. [14]: 25 min; Kd [15]: 0.004 nM; t 1/2-diss. [15]: 35 min; t 1/2* [16]: 27 min
4 | 1A5 (antibody, IgG1, V domains shown, also called CCL2-0009) VH: QEQLVESGGDLVKPEGSLTLTCTASGFSFSTSYWMCWVRQAPGKGLELIACISSSIGVTYYASWAEGRFTISKTSSTTVTLQMTSLTVADTATYFCARTTDDNWNVGFNLWGPGTLVTVSS VL: AYDMTQTPASVEVGVGGTVTIKCQASQSIGNRYLSWYQQKPGQPPKLLIYGTSTLASGVSSRFKGSGSGTQFTLTISGVESADSATYYCQQGATISYLDNAFGGGTEVVVK | 3.6 | 0.024 | 160 | 0.046 | 137 | no binding (tested: 20 nM) | binds | 
5 | CNTO888 (antibody, V domains shown, IgG1 wild type with kappa light chain; also called CCL2-0004; CNTO888-IgG1) VH: QVQLVQSGAEVKKPGSSVKVSCKASGGTFSSYGISWVRQAPGQGLEWMGGIIPIFGTANYAQKFQGRVTITADESTSTAYMELSSLRSEDTAVYYCARYDGIYGELDFWGQGTLVTVSS VL: not shown |  |  |  |  |  |  | no binding (tested: 20 nM) | 
